Assay in all cases: BLI
Common to all, as to settings: both partners purified

The target in experiment [1] is T1, SARS-CoV-2 Omicron BA.1 RBD, biotin-tagged (SARS-CoV-2 Omicron BA.1, S371L | S375F | K/V417N | S477N | E484A | N501Y | Y505H, biotin).
T1 construct: source: Expi293, purified

Experiment [2] addresses T2, SARS-CoV-2 Omicron BA.4/5 RBD, biotin-tagged (SARS-CoV-2 Omicron BA.4/5, S371F | S375F | D405N | R408S | L452R | E484A | F486V | N501Y, biotin).
T2 construct: source: Expi293, purified

The target of experiment [3] is T3, SARS-CoV-2 Beta RBD, biotin-tagged (SARS-CoV-2 Beta (B.1.351), E484K | N501Y, biotin).
T3 construct: source: Expi293, purified

B1: B5-5 monomer (VHH)
VHH: QVQLVESGGGLVQPGGSLRLSCAVFGSTLDNYSVGWFRQLPGKEREGLACFSRRYGAPYYADSAKDRFTISRDNAKNTVDLQLNGLKPEDTAVYYCATRSGPYCTTSVSDFDDWGRGTQVTVSS
Turning to B1, in experiment [1], the Kd came to 0.355 nM, the off-rate (koff) is 0.000204 s⁻¹ and the kon was found to be 576000 M⁻¹ s⁻¹. In experiment [2], this molecule registered a Kd of 0.684 nM, a koff of 0.000129 s⁻¹ and a kon of 190000 M⁻¹ s⁻¹. Moreover, in experiment [3], the Kd stood at 0.0655 nM, the koff is 1.29e-05 s⁻¹ and the kon is 216000 M⁻¹ s⁻¹.

B2: H6 monomer (VHH)
VHH: QVQLVESGGGLVQPGGSLTLSCVASESSLAPYRVAWFRQAPGKEREGVSCISRDAHPTSTYYTASVKGRFTMSRDNAKNTVYLQMNSLKPSDTAVYYCATDLGGYCSDSNYPRAWWGQGTQVTVSS
In experiment [1], B2 came in with a Kd of 22.7 nM, a koff of 0.00553 s⁻¹ and a kon of 245000 M⁻¹ s⁻¹. In experiment [2], the affinity, expressed as Kd, was 7.08 nM; the koff was determined as 0.00235 s⁻¹; the kon turned out to be 333000 M⁻¹ s⁻¹. In experiment [3], the Kd worked out at 0.677 nM, the koff amounted to 0.000337 s⁻¹ and the kon is 498000 M⁻¹ s⁻¹.

B3: A8 monomer (VHH)
VHH: QVQLVESGGGLVQAGGSLRLSCAASGGTFSTAAMGWFRQAPGEERECVASIGWRGVRTWYADSVKGRFTISRDNPQNTVYLQMNNLKSGDTAVYYCAASVGNYGLPWAHFEYDFWGQGIQVTVSS
In experiment [1], B3 came in with a Kd of 15.7 nM, a koff of 0.0053 s⁻¹ and a kon of 343000 M⁻¹ s⁻¹. Also, in experiment [2], the Kd was 8.1 nM, the koff came out at 0.00283 s⁻¹ and the kon was 349000 M⁻¹ s⁻¹. In experiment [3], the Kd is 0.889 nM, the koff was 0.000289 s⁻¹ and the kon is 326000 M⁻¹ s⁻¹.

Source of the values: article PMC11285730 (Open Biology, 2024).
